Assay results reported in patent publication US20260116991A1 (HAINAN SIMCERE ZAIMING PHARMACEUTICAL, published 2026).
Changes are numbered by the printed parent chain.

B1: hAb006LH3L1c (antibody, human IgG1, V domains shown)
VH: EVQLVQSGAEVKKPGSSVKVSCKASGYTFTDYEIHWVRQAPGQGLEWMGAIDPKTGNTAYNQKFMGRVTLTADKSTSTAYMELSSLRSEDTAVYYCTRYFSFAYWGQGTLVTVSS
VL: DIVMTQTPLSLPVTPGEPASISCRSSQTFVHSNRNTYLQWYLQKPGQSPQLLIYKVSNRFSGVPDRFSGSGSGTDFTLKISRVEAEDVGVYYCFQGSHVPYTFGQGTKLEIK
notes: Humanized F3.38.7, H3+L1c
B2: hAb001H1L1a (antibody, human IgG1, V domains shown)
VH: EVQLVESGGGLVQPGGSLRLSCAASGFSFNTNAMNWVRQAPGKGLEWVGRIRSKSNNYATYYADSVKDRFTISRDDSKNSLYLQMNSLKTEDTAVYYCVRDGYYVLFAYWGQGTLVTVSS
VL: B1 VL with S25F, T28S, F29I, H31N, N33D, R34G, Q39E, Y41F, Y101F
notes: Humanized F2.169.2, H1+L1a
B3: hAb001H1aL1b (antibody, human IgG1, V domains shown)
VH: B2 VH with D68G
VL: B1 VL with S25F, T28S, F29I, H31N, R34A, Q39E, Y41F, Y101F
notes: Humanized F2.169.2, H1a+L1b
B4: hAb001H2L1b (antibody, human IgG1, V domains shown)
VH: B2 VH with N79S
VL: B1 VL with S25F, T28S, F29I, H31N, R34A, Q39E, Y41F, Y101F
notes: Humanized F2.169.2, H2+L1b
B5: hAb001H2L1a (antibody, human IgG1, V domains shown)
VH: B2 VH with N79S
VL: B1 VL with S25F, T28S, F29I, H31N, N33D, R34G, Q39E, Y41F, Y101F
notes: Humanized F2.169.2, H2+L1a
B6: hAb001H2L1 (antibody, human IgG1, V domains shown)
VH: B2 VH with N79S
VL: B1 VL with S25F, T28S, F29I, H31N, R34G, Q39E, Y41F, Y101F
notes: Humanized F2.169.2, H2+L1
B7: hAb001H1aL1a (antibody, human IgG1, V domains shown)
VH: B2 VH with D68G
VL: B1 VL with S25F, T28S, F29I, H31N, N33D, R34G, Q39E, Y41F, Y101F
notes: Humanized F2.169.2, H1a+L1a
B8: hAb006LH3L1d (antibody, human IgG1, V domains shown)
VH: B1 VH
VL: B1 VL with R34S
notes: Humanized F3.38.7, H3+L1d
B9: hAb001H1aL1 (antibody, human IgG1, V domains shown)
VH: B2 VH with D68G
VL: B1 VL with S25F, T28S, F29I, H31N, R34G, Q39E, Y41F, Y101F
notes: Humanized F2.169.2, H1a+L1

How the values were obtained:
monkey GPC3-His protein [1] = target: T1, monkey GPC3-His protein (monkey); test: ELISA, monkey GPC3-His coated; antibody 0.056 nM
T1 construct: Bought protein; also called monkey GPC3 protein
Method: (§1) The specific method is described as follows: The antigen protein was diluted with PBS to a final concentration of 1 μg/mL, and the diluent was added to a 96-well ELISA plate at 50 μL/well. The plate was sealed with a plastic film and incubated at 4° C. overnight, washed twice with PBS the next day, and a blocking solution [PBS+2% (w/w) BSA] was added for blocking at room temperature for 2 h. […] After incubation at 37° C. for 2 h, the plate was washed 3 times with PBS. A horseradish peroxidase (HRP)-labeled secondary antibody (purchased from Merck, Cat. No. AP113P) was added for incubation at 37° C. for 1 h, and the plate was washed 5 times with PBS. A TMB substrate was added at 50 μL/well for incubation at room temperature for 10 min, then a stop solution (1.0M HCl) was added at 50 μL/well.

monkey GPC3-His protein [2] = target: T1, monkey GPC3-His protein; test: ELISA, monkey GPC3-His coated; antibody 0.0004 nM
Method: as §1

monkey GPC3-His protein [3] = target: T1, monkey GPC3-His protein; test: ELISA, monkey GPC3-His coated; antibody 0.011 nM
Method: as §1

monkey GPC3-His protein [4] = target: T1, monkey GPC3-His protein; test: ELISA, monkey GPC3-His coated; antibody 0.28 nM
Method: as §1

monkey GPC3-His protein [5] = target: T1, monkey GPC3-His protein; test: ELISA, monkey GPC3-His coated; antibody 1.39 nM
Method: as §1

monkey GPC3-His protein [6] = target: T1, monkey GPC3-His protein; test: ELISA, monkey GPC3-His coated; antibody 34.72 nM
Method: as §1

monkey GPC3-His protein [7] = target: T1, monkey GPC3-His protein; test: ELISA, monkey GPC3-His coated; antibody 0.002 nM
Method: as §1

GPC3 on HepG2 cells = target: T2, GPC3 on HepG2 cells (human, UniProt P51654 25-554); test: FACS on HepG2 cells
T2 construct: whole, on cells; also called glypican-3
Method: The desired cells were expanded to a logarithmic growth phase in a T-75 cell culture flask, the medium was removed by pipetting, and the cells were washed twice with a PBS buffer, and digested with trypsin. Then a complete medium was added to stop the digestion, and the cells were blown into a single cell suspension. After counting, the cells were centrifuged, and the cell pellet was resuspended with an FACS buffer (PBS+2% fetal bovine serum) to 2×10⁶ cells/mL. The cell resuspension solution was added to a 96-well FACS reaction plate at 50 μl/well, and a humanized antibody sample to be tested was added at 50 μl/well for incubation at 4° C. for 1 h. […] After the plate was centrifuged and washed 3 times with a PBS buffer, 100 μl of the resulting solution was assayed and analyzed by FACS (FACS Canto™, purchased from BD Biosciences). Data analysis was performed by software (FlowJo) to obtain the mean fluorescence intensity (MFI) of the cells. Then, analysis was performed by software (GraphPad Prism8), data were fitted, and EC₅₀ values were calculated.

monkey GPC3-His protein [8] = target: T1, monkey GPC3-His protein; test: ELISA, monkey GPC3-His coated; antibody 6.94 nM
Method: as §1

monkey GPC3-His protein [9] = target: T1, monkey GPC3-His protein; test: ELISA, monkey GPC3-His coated; antibody 66.66 nM
Method: as §1

monkey GPC3-His protein [10] = target: T1, monkey GPC3-His protein; test: ELISA, monkey GPC3-His coated; antibody 13.33 nM
Method: as §1

monkey GPC3-His protein [11] = target: T1, monkey GPC3-His protein; test: ELISA, monkey GPC3-His coated; antibody 0.02 nM
Method: as §1

monkey GPC3-His protein [12] = target: T1, monkey GPC3-His protein; test: ELISA, monkey GPC3-His coated; antibody 0.004 nM
Method: as §1

murine GPC3-his protein [13] = target: T3, murine GPC3-his protein (murine, UniProt Q8CFZ4 25-558, limits assumed); test: ELISA, murine GPC3-his coated; antibody 0.11 nM
T3 construct: Bought protein; also called mouse GPC3 protein; murine GPC3 protein; not shown: His tag

monkey GPC3-His protein [14] = target: T1, monkey GPC3-His protein; test: ELISA, monkey GPC3-His coated; antibody 2.67 nM
Method: as §1

monkey GPC3-His protein [15] = target: T1, monkey GPC3-His protein; test: ELISA, monkey GPC3-His coated; antibody 0.53 nM
Method: as §1

murine GPC3-his protein [16] = target: T3, murine GPC3-his protein; test: ELISA, murine GPC3-his coated; antibody 2.67 nM
Method: as §1

murine GPC3-his protein [17] = target: T3, murine GPC3-his protein; test: ELISA, murine GPC3-his coated; antibody 66.66 nM
Method: as §1

murine GPC3-his protein [18] = target: T3, murine GPC3-his protein; test: ELISA, murine GPC3-his coated; antibody 0.53 nM
Method: as §1

monkey GPC3-His protein [19] = target: T1, monkey GPC3-His protein; test: ELISA, monkey GPC3-His coated; antibody 0.11 nM
Method: as §1

monkey GPC3-His protein [20] = target: T1, monkey GPC3-His protein; test: ELISA, monkey GPC3-His coated; antibody 0.0008 nM
Method: as §1

murine GPC3-his protein [21] = target: T3, murine GPC3-his protein; test: ELISA, murine GPC3-his coated; antibody 0.0008 nM
Method: as §1

murine GPC3-his protein [22] = target: T3, murine GPC3-his protein; test: ELISA, murine GPC3-his coated; antibody 0.02 nM
Method: as §1

murine GPC3-his protein [23] = target: T3, murine GPC3-his protein; test: ELISA, murine GPC3-his coated; antibody 13.33 nM
Method: as §1

murine GPC3-his protein [24] = target: T3, murine GPC3-his protein; test: ELISA, murine GPC3-his coated; antibody 0.004 nM
Method: as §1

T3 sequence (Q8CFZ4 25-558 limits assumed): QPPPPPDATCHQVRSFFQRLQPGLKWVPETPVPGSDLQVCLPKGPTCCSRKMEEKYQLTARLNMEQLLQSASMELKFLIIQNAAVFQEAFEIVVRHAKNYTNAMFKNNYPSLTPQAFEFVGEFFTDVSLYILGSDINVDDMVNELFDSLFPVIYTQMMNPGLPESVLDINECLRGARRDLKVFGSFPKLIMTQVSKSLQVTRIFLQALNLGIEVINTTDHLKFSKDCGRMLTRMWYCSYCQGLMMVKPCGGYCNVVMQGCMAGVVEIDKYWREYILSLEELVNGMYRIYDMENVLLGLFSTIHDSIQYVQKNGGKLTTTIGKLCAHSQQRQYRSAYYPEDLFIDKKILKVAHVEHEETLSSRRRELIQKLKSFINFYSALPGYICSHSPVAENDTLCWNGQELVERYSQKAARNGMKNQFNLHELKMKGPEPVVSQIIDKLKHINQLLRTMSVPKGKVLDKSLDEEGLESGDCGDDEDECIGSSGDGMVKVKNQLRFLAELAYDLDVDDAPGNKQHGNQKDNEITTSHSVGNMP

Binder | OD450 nm (monkey GPC3-His protein [9]) | OD450 nm (monkey GPC3-His protein [10]) | OD450 nm (monkey GPC3-His protein [11]) | OD450 nm (monkey GPC3-His protein [12]) | OD450 nm (murine GPC3-his protein [13]) | OD450 nm (monkey GPC3-His protein [14]) | OD450 nm (monkey GPC3-His protein [15]) | OD450 nm (murine GPC3-his protein [16]) | OD450 nm (murine GPC3-his protein [17]) | OD450 nm (murine GPC3-his protein [18]) | OD450 nm (monkey GPC3-His protein [19]) | OD450 nm (monkey GPC3-His protein [20]) | OD450 nm (murine GPC3-his protein [21]) | OD450 nm (murine GPC3-his protein [22]) | OD450 nm (murine GPC3-his protein [23]) | OD450 nm (murine GPC3-his protein [24]) | further results
B1 |  |  |  |  |  |  |  |  |  |  |  |  |  |  |  |  | OD450 nm (monkey GPC3-His protein [1]): 0.876; OD450 nm (monkey GPC3-His protein [2]): 0.071; OD450 nm (monkey GPC3-His protein [3]): 0.332; OD450 nm (monkey GPC3-His protein [4]): 1.24; OD450 nm (monkey GPC3-His protein [5]): 1.32; OD450 nm (monkey GPC3-His protein [6]): 1.26; OD450 nm (monkey GPC3-His protein [7]): 0.122; EC50 (GPC3 on HepG2 cells): 0.417 nM; Max MFI (GPC3 on HepG2 cells): 3520; OD450 nm (monkey GPC3-His protein [8]): 1.33
B2 | 2.16 | 2.37 | 0.39 | 0.211 | 1.66 | 2.27 | 2.08 | 2.49 | 2.58 | 2.37 | 1.23 | 0.068 | 0.117 | 0.657 | 2.57 | 0.356 | 
B3 | 2.59 | 2.54 | 1.02 | 0.347 | 2.05 | 2.39 | 2.39 | 2.68 | 2.76 | 2.52 | 1.99 | 0.144 | 0.185 | 1.15 | 2.73 | 0.346 | 
B4 | 2.58 | 2.47 | 0.865 | 0.317 | 2.06 | 2.45 | 2.54 | 2.44 | 2.64 | 2.38 | 1.93 | 0.143 | 0.199 | 1.09 | 2.58 | 0.407 | 
B5 | 2.22 | 2.34 | 0.34 | 0.094 | 1.59 | 2.25 | 2.02 | 2.35 | 2.48 | 2.19 | 1.13 | 0.063 | 0.094 | 0.664 | 2.41 | 0.191 | 
B6 | 2.68 | 2.64 | 1.05 | 0.4 | 2.1 | 2.59 | 2.47 | 2.59 | 2.62 | 2.48 | 2.11 | 0.304 | 0.277 | 1.27 | 2.62 | 0.524 | 
B7 | 2.34 | 2.42 | 0.437 | 0.132 | 1.49 | 2.44 | 2.19 | 2.49 | 2.45 | 2.29 | 1.44 | 0.073 | 0.092 | 0.67 | 2.44 | 0.206 | 
B8 |  |  |  |  |  |  |  |  |  |  |  |  |  |  |  |  | OD450 nm (monkey GPC3-His protein [1]): 0.719; OD450 nm (monkey GPC3-His protein [2]): 0.068; OD450 nm (monkey GPC3-His protein [3]): 0.308; OD450 nm (monkey GPC3-His protein [4]): 1.1; OD450 nm (monkey GPC3-His protein [5]): 1.28; OD450 nm (monkey GPC3-His protein [6]): 1.3; OD450 nm (monkey GPC3-His protein [7]): 0.121; EC50 (GPC3 on HepG2 cells): 0.772 nM; Max MFI (GPC3 on HepG2 cells): 3500; OD450 nm (monkey GPC3-His protein [8]): 1.29
B9 | 2.52 | 2.52 | 1.03 | 0.379 | 1.95 | 2.57 | 2.36 | 2.52 | 2.68 | 2.45 | 2 | 0.201 | 0.255 | 1.15 | 2.63 | 0.44 | 
